Data set [1] concerns the target T1, Rv2034C61A C61A (Mycobacterium tuberculosis) (UniProt O53478).
T1 sequence: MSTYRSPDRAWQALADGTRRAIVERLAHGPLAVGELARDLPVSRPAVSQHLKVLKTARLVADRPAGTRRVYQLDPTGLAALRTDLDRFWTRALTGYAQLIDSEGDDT
Kind of data set: EMSA. A general note: Mobility shift assays separate free from complexed probe on a gel.

Data set [2] deals with T2, Rv2034AE A32G;E35G (Mycobacterium tuberculosis) (UniProt O53478).
T2 sequence: T1 sequence with A32G, E35G, A61C
Kind of data set: EMSA.

The target in data set [3] is T3, Rv2034 (ArsR family regulator) (Mycobacterium tuberculosis, UniProt O53478 1-107).
T3 sequence: T1 sequence with A61C
Kind of data set: EMSA; 0.1-1.2 uM protein. To be noted: protein: recombinant, tags: N-terminal His6 (pET28a), chain copies: 2, label: 5' label (32P or FITC).

Data set [4] has as its target T3, Rv2034 (ArsR family regulator). Kind of data set: EMSA; up to 1.2 uM protein. The conditions noted are these: protein: recombinant, tags: N-terminal His6 (pET28a), chain copies: 2, label: 5' label (32P or FITC).

Substitutions are numbered along the chain they refer to.

In the case of “AATTTCTAGAGCCTGCGGCAAGCACGTCGGTTCCATAGCGATCCAGCACGCCGCAATACTAGGGAGCCTCTCTGCCGGTCATCGCCGCGACGCGCCGCATGGGTTCTCGGAAAATGCTTGTACCAGTCGACTTTCCGGCGGGCCAACGTCGCCAACCGATACTCGGCTCCAACGCCATGGGTGACGGGATGCCCGGATCACGTGTCACACCACCCGCGCACCCTTGCGGAAGAATATCCGTAAGTCTAAACTTACGGTTCGAATTCCCGG (double strand) [Rv2034p promoter]”, the binding entry in data set [1] and in data set [2] was “no binding” throughout.

B1: Rv2034BSmu4 (dsDNA)
DNA 1: AGAGTTGATACCGTAAGTTAGCACTTACGGACTTAAGGTT
DNA 2: AACCTTAAGTCCGTAAGTGCTAACTTACGGTATCAACTCT
B1: the binding result in data set [3] is recorded as “binds”.

B2: Rv2034BSmu2 (dsDNA)
DNA 1: GGAAGAATATGGCATTCACTAAACTGCATGTTCGTGTCCA
DNA 2: TGGACACGAACATGCAGTTTAGTGAATGCCATATTCTTCC
Consider B2, for which the binding result in data set [4] (blunt) was “no binding”.

B3: Rv2034BSmu5 (dsDNA)
DNA 1: B2 DNA 1 with A23C, C24A, T25G, G30A
DNA 2: B2 DNA 2 with C11T, A16C, G17T, T18G
For the molecule B3, the binding result in data set [4] is reported as “no binding”.

B4: Rv2034BSmu3 (dsDNA)
DNA 1: GGAAGAATATCCGTAAGTCTGATAAAACTTACGGTTCGTGTCCA
DNA 2: TGGACACGAACCGTAAGTTTTATCAGACTTACGGATATTCTTCC
Consider B4, for which the binding result in data set [3] (blunt) is on record as “binds”.

The values above are taken from article PMC3338718, “Characterization of a Novel ArsR-Like Regulator Encoded by Rv2034 in Mycobacterium tuberculosis”.
